Results: article PMC11272940, “UNC-45 assisted myosin folding depends on a conserved FX3HY motif implicated in Freeman Sheldon Syndrome” (Nature Communications, 2024)

B2: Full length C. elegans UNC-45 (from E. coli) (natural protein, UniProt G5EG62 1-961, looked up)
chain: MVARVQTAEEIRDEGNAAVKDQDYIKADELYTEALQLTTDEDKALRPVLYRNRAMARLKRDDFEGAQSDCTKALEFDGADVKALFRRSLAREQLGNVGPAFQDAKEALRLSPNDKGIVEVLQRLVKANNDKIKQTTSLANKVTDMEKLAFRGEAKDTEQKMTALNNLLVLCRESESGATGVWNQGALVPFVLNLINDASENEEVTVTAIRILDETIKNSVRCMKFLAMHDPDGPKSVRFVCRLMCKKSTKDFVDATGILVQRVFNAMAKMDRQKEMKPDPEVAEANKIWIIRVLLELQEMLQDPKVGAVQRETCIDLFLKNLMHMDGGIPRGWSWKFVEERGLLALLDVASQIPELCEYPVSAETRQHVAICLQRLEEDMVFDTKRTIFKEKVDMFFNALISRCTNDDEGHKYRIKLSCFLITMLQGPVDIGINLITNDQLTPIMLEMAASQDHLMQGIAAELIVATVSKHERAINMLKVGIPVLRALYDSEDPTVKVRALVGLCKIGAAGGDDISKATMKEEAVISLAKTCKKFLLETEKYSVDIRRYACEGLSYLSLDADVKEWIVDDSLLLKALVLLAKKAGALCVYTLATIYANLSNAFEKPKVDEEMVKLAQFAKHHVPETHPKDTEEYVEKRVRALVEEGAVPACVAVSKTESKNALELIARSLLAFAEYEDLRGRIIAEGGTVLCLRLTKEASGEGKIKAGHAIAKLGAKADPMISFPGQRAYEVVKPLCDLLHPDVEGKANYDSLLTLTNLASVSDSIRGRILKEKAIPKIEEFWFMTDHEHLRAAAAELLLNLLFFEKFYEETVAPGTDRLKLWVLYSAEVEEERLSRASAAGFAILTEDENACARIMDEIKSWPEVFKDIAMHEDAETQRRGLMGIANIMHSSNKLCSEIVSSEVFRVLVAVTKLGTINQERAGSTEQAKRGLEAAEKFGLIKATDREIYERENQMSTIQE
notes: UNC-45 chaperone, C. elegans; The C-terminal Strep tag is stated for the peptide spot assay; also called wildtype UNC-45; purified UNC-45; source: E. coli, purified (HisTrap or StrepTrap, SEC); not shown: Strep, C-terminal, kept

What was measured:
[1] = target: B2; test: cross-linking; XL-MS of the in vitro reconstituted UFD-2:UNC-45:myo^UF complex; 0.25 mM DSS, 20 mM HEPES pH 8.0, 150 mM NaCl, 25 °C, 30 min; details: both partners purified
[2] = target: T1, C. elegans UNC-45 (co-expressed with the MHC-B motor domain in insect cells) (C. elegans, UniProt G5EG62 1-961); test: tandem affinity co-purification + SEC; co-expressed in insect cells; HisTrap (myosin) then Strep-Tactin (UNC-45), then Superdex 200 in 20 mM HEPES pH 8.0, 150 mM NaCl; details: partners not purified
T1 construct: UNC-45 chaperone, C. elegans; also called UNC-45 WT; wildtype UNC-45; source: High Five insect cells, baculovirus, co-expressed with myosin; purified as a complex (HisTrap, Strep-Tactin, SEC); in cleared lysate in the solubility assay
T1 sequence: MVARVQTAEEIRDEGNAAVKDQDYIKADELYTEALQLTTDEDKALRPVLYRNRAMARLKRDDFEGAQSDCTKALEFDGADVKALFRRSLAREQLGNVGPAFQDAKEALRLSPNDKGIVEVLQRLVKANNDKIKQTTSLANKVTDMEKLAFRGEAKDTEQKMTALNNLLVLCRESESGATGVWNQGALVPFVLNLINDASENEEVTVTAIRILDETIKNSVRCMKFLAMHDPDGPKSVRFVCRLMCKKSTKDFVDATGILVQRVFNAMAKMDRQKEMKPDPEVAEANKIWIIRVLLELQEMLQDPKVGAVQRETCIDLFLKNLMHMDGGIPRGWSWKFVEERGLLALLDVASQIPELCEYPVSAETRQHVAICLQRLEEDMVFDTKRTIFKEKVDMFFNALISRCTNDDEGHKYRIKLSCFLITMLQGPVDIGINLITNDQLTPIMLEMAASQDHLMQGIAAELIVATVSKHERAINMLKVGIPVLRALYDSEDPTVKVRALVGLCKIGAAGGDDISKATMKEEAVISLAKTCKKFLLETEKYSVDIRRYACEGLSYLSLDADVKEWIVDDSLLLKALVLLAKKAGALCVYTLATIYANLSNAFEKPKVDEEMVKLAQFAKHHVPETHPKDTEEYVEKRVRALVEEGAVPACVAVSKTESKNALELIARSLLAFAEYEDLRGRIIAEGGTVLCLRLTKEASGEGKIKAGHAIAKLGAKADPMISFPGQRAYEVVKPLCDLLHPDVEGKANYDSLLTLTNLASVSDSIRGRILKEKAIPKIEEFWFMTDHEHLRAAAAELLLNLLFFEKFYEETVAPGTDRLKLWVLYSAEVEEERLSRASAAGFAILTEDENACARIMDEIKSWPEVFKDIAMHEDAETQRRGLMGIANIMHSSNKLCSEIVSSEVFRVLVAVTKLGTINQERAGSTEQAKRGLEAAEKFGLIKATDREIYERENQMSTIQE

[3] = target: T2, 547–588 myosin peptide (MHC-B) (C. elegans, UniProt P02566 547-588); test: thermal shift assay; 1 μM UNC-45 or UNC-45 ΔUCS, 2 mM peptide, SYPRO Orange, 20 mM HEPES pH 8.0, 150 mM NaCl; triplicates; details: both partners purified
T2 construct: also called native peptide; identified myosin ligand; source: synthetic peptide
T2 peptide (looked up): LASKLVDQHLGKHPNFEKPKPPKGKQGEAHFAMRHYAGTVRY

[4] = target: T3, Kluyveromyces lactis SHE4, wildtype (Kluyveromyces lactis); test: ITC; 25 °C, VP-ITC; 10 μM SHE4 in the cell, 90 μM (N475A: 107 μM) peptide in the syringe; 10 mM HEPES pH 8.0, 150 mM NaCl, 1 mM TCEP; single site model; details: both partners purified
T3 chain: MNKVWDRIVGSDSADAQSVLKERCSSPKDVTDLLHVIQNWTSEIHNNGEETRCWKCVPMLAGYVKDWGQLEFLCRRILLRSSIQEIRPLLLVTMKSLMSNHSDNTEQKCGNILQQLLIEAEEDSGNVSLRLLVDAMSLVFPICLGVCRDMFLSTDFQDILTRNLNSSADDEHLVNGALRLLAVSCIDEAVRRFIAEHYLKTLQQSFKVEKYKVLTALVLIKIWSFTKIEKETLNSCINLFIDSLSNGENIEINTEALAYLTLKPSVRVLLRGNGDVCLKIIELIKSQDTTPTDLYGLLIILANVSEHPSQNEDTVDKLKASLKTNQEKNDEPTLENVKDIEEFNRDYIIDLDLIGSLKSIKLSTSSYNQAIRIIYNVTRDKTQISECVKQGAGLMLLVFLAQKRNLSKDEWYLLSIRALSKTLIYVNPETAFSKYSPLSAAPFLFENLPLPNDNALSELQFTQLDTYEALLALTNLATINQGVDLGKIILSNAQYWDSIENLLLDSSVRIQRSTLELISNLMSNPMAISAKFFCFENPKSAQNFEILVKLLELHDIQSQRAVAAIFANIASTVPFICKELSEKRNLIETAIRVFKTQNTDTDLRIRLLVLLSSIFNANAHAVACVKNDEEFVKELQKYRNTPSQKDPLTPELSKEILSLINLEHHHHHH

B1: C. elegans myosin motor domain MHC-B (1-790), wildtype (domain or fragment, UniProt P02566 1-790, looked up)
chain: MEHEKDPGWQYLRRTREQVLEDQSKPYDSKKNVWIPDPEEGYLAGEITATKGDQVTIVTARGNEVTLKKELVQEMNPPKFEKTEDMSNLSFLNDASVLHNLRSRYAAMLIYTYSGLFCVVINPYKRLPIYTDSCARMFMGKRKTEMPPHLFAVSDEAYRNMLQDHENQSMLITGESGAGKTENTKKVICYFAAVGASQQEGGAEVDPNKKKVTLEDQIVQTNPVLEAFGNAKTVRNNNSSRFGKFIRIHFNKHGRLASCDIEHYLLEKSRVIRQAPGERCYHIFYQIYSDFRPELKKELLLDLPIKDYWFVAQAELIIDGIDDVEEFQLTDEAFDILNFSAVEKQDCYRLMSAHMHMGNMKFKQRPREEQAEPDGTDEAEKASNMYGIGCEEFLKALTKPRVKVGTEWVSKGQNCEQVNWAVGAMAKGLYSRVFNWLVKKCNLTLDQKGIDRDYFIGVLDIAGFEIFDFNSFEQLWINFVNEKLQQFFNHHMFVLEQEEYAREGIQWVFIDFGLDLQACIELIEKPLGIISMLDEECIVPKATDLTLASKLVDQHLGKHPNFEKPKPPKGKQGEAHFAMRHYAGTVRYNCLNWLEKNKDPLNDTVVSAMKQSKGNDLLVEIWQDYTTQEEAAAKAKEGGGGGKKKGKSGSFMTVSMLYRESLNNLMTMLNKTHPHFIRCIIPNEKKQSGMIDAALVLNQLTCNGVLEGIRICRKGFPNRTLHPDFVQRYAILAAKEAKSDDDKKKCAEAIMSKLVNDGSLSEEMFRIGLTKVFFKAGVLAHLEDIRDEKL
notes: MHC-B muscle myosin (Myo4_Cel), C. elegans, motor domain residues 1-790; the state is told by the assay; also called MHC (1-790); Myo4_Cel; source: High Five insect cells, baculovirus; purified (Ni-NTA, SEC) alone or as a complex with UNC-45; not shown: His6, C-terminal, kept
**Q.** Does B1 bind [1]?
**A.** Result: binds

**Q.** Does B1 bind [2]?
**A.** Result: binds

**Q.** How did the “increase of melting temperature (Tm)” value [3] turn out when B2 was run?
**A.** The value was 5.5 °C.

B3: Myo4 peptide (residues 561–573) (peptide)
peptide: WKFIVSHYAVDVEY
notes: tryptophan introduced at the N-terminus for peptide quantification; also called myosin peptide; core of the myosin motif; source: synthetic peptide (in-house, HPLC purified)
**Q.** For B3, which Kd [4] is on record?
**A.** Its Kd is 0.6 µM.
